Reference: publication PMC6638984, “Increased association between Epstein-Barr virus EBNA2 from type 2 strains and the transcriptional repressor BS69 restricts EBNA2 activity” (PLoS Pathogens, 2019)
Like-named read-outs stand apart in the source and are kept apart here.

Molecular target: T1, BS69CC-MYND (BS69 amino acid 480–602, CC-MYND domain) (Homo sapiens, UniProt Q15326)
T1 construct: The BS69 CC-MYND domain (amino acids 480–602) was amplified from pCI-BS69; GST (N, cleaved yes); 6xHis (N, cleaved yes); made in house; host or cells: E. coli Rosetta 2 (DE3) pLysS
T1 sequence (Q15326 480-602): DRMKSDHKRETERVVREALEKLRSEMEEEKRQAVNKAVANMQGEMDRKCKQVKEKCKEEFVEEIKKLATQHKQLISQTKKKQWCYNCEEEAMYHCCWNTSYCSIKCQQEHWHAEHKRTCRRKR
Test: Isothermal titration calorimetry (ITC) of EBNA2 peptides and polypeptides binding to BS69CC-MYND
Conditions: mean ± SD of 3 independent experiments; for Kd: pH 7.5, 29 injections of 1.3 μl 0.3 mM EBNA2 polypeptide into 0.1 mM BS69CC-MYND; for -TΔS, event 1, two-site model / -TΔS, event 2, two-site model / n value, event 1, two-site model / n value, event 2, two-site model / ΔG, event 1, two-site model / ΔG, event 2, two-site model / ΔH, event 1, two-site model / ΔH, event 2, two-site model: 29 injections
Text: We hypothesised that the impaired gene activation and growth maintenance properties of type 2 EBNA2 may be the result of increased binding to BS69 as a result of the aspartate to serine amino acid difference adjacent to BS69 binding motif 2. […] We used isothermal titration calorimetry (ITC) to determine the affinity of peptide binding to the C-terminal region of BS69 (amino acid 480–602) comprising the CC-MYND domain that we expressed and purified from E.coli (Fig 1B and 1C). […] The difference in binding between type 1 and type 2 EBNA2 motif 2 peptides could be influenced by both the aspartate to serine change and differences in two other amino acids present in the sequence (Fig 1B and 1C).
The BS69 CC-MYND domain (amino acids 480–602) was amplified from pCI-BS69 containing the full length human BS69 sequence (gift from Dr Stéphane Ansieau) and cloned using SLIC into the SmaI and HindIII sites of pET49b+ to generate a construct expressing an N-terminal GST-6x Histidine tag BS69CC-MYND fusion protein (S2 Table).
Four commercially synthesized peptides (Peptide Synthetics) were used for ITC. These included BS69 binding motif 2 of type 1 EBNA2 (435–445) or type 2 EBNA2 (402–412) and putative BS69 binding motif 3 of type 1 EBNA2 (445–455) or type 2 EBNA2 (412–422).
Frozen protein was quickly thawed using running water and dialysed overnight at 4°C using Slide-A-Lyzer MINI Dialysis Units (Thermo Scientific) against ITC buffer (20mM Tris-HCl, 100mM NaCl and 1mM TCEP, pH 7.5). The next day, protein samples were centrifuged at 13000 rpm for 10 mins at 4 °C and the concentration was determined by NanoDrop spectroscopy (NanoDrop Technologies) with their respective molecular weights and extinction coefficients. EBNA2 peptides (1mM) and polypeptides (type 1, 0.3 mM and type 2, 0.6 mM) were titrated against BS69CC-MYND (0.1mM) at 25°C using a MicroCalTM iTC200 instrument (Malvern). For peptides, 13 x 3.0 μl injections were used for titration. For EBNA2 polypeptides 19 x 2.0 μl or 29 x 1.3 μl injections were used for titration. ITC data were corrected for non-specific heat and analysed using MicroCal Origin 7.0. The experiments were performed in triplicate alongside a control experiment with no BS69CC-MYND (buffer only in the cell). All polypeptides were used within 24 hrs of dialysis into ITC buffer.

[1] = 25°C, read-out: KD1 (binding event 1), two-site (two event) binding model
[2] = 25°C, read-out: KD2 (binding event 2), two-site (two event) binding model
[3] = 25°C, pH 7.5, peptides 13 injections, polypeptides 19 injections

B1: EBNA2_348-422 SD + m3 T1: type 2 EBNA2 polypeptide 348–422 containing both the SD and motif 3 (PSIDP) mutations (protein)
chain: SMPQLSPVVSLHQGQGPENSPTPGPSTAGPVCRVTPSATPDISPIHEPESSDSEEPPFLFPDDWYPPSIDPAELD
modifications: left off: His6, N-terminal, cleaved
notes: type 2 EBNA2 polypeptide 348–422 containing both the SD and motif 3 (PSIDP) mutations
[1]
  Kd: 8 nM
[2]
  Kd: 136 nM
  -TΔS, event 1, two-site model: 21.0 ± 0.95 kcal/mol
  -TΔS, event 2, two-site model: -4.62 ± 2.01 kcal/mol
  n value, event 1, two-site model: 0.20 ± 0.01
  n value, event 2, two-site model: 0.20 ± 0.08
  ΔG, event 1, two-site model: -11.1 ± 0.17 kcal/mol
  ΔG, event 2, two-site model: -9.44 ± 0.35 kcal/mol
  ΔH, event 1, two-site model: -32.1 ± 1.12 kcal/mol
  ΔH, event 2, two-site model: -4.82 ± 1.69 kcal/mol

B2: T2 EBNA2_348-422: type 2 EBNA2 polypeptide containing motif 1, 2 and 3, amino acids 348–422 (protein)
chain: SMPQLSPVVSLHQGQGPENSPTPGPSTAGPVCRVTPSATPDISPIHEPESSDSEEPPFLFPSDWYPPTLEPAELD
modifications: left off: His6, N-terminal, cleaved
[1]
  Kd: 9 nM
[2]
  Kd: 91 nM
[3]
  -TΔS, one-site model: 45 kcal/mol
  ΔG, one-site model: -8.20 ± 0.18 kcal/mol
25°C, pH 7.5, peptides 13 injections, polypeptides 19 injections, listed as T2 EBNA2 348-422
  -TΔS, one-site model: 45.0 ± 1.84 kcal/mol
  -TΔS, event 1, two-site model: 23.1 ± 0.14 kcal/mol
  -TΔS, event 2, two-site model: -8.04 ± 0.25 kcal/mol
  n value, event 1, two-site model: 0.23 ± 0.01
  n value, event 2, two-site model: 0.21 ± 0.00
  ΔG, event 1, two-site model: -11.0 ± 0.28 kcal/mol
  ΔG, event 2, two-site model: -9.62 ± 0.16 kcal/mol
  ΔH, event 1, two-site model: -34.1 ± 0.14 kcal/mol

B3: T2 EBNA2_348-422 SD: type 2 EBNA2 polypeptide 348–422 with an S409D mutation (protein)
chain: SMPQLSPVVSLHQGQGPENSPTPGPSTAGPVCRVTPSATPDISPIHEPESSDSEEPPFLFPDDWYPPTLEPAELD
modifications: left off: His6, N-terminal, cleaved
notes: type 2 EBNA2 polypeptide 348–422 with an S409D mutation
[1]
  Kd: 8 ± 3 nM
[2]
  Kd: 200 ± 26 nM
  -TΔS, event 1, two-site model: 11.6 ± 0.31 kcal/mol
  -TΔS, event 2, two-site model: 0.47 ± 1.33 kcal/mol
  n value, event 1, two-site model: 0.22 ± 0.01
  n value, event 2, two-site model: 0.20 ± 0.00
  ΔG, event 1, two-site model: -11.0 ± 0.21 kcal/mol
  ΔG, event 2, two-site model: -9.14 ± 0.08 kcal/mol
  ΔH, event 1, two-site model: -22.7 ± 0.29 kcal/mol
  ΔH, event 2, two-site model: -9.62 ± 1.32 kcal/mol

B4: T2 EBNA2_348-422 motif 3 mt: T2 EBNA2_348-422 with motif 3 mutated from PTLEP to ATAEA (protein)
chain: SMPQLSPVVSLHQGQGPENSPTPGPSTAGPVCRVTPSATPDISPIHEPESSDSEEPPFLFPSDWYPATAEAAELD
modifications: left off: His6, N-terminal, cleaved
notes: T2 EBNA2_348-422 with motif 3 mutated from PTLEP to ATAEA
[3]
  -TΔS, one-site model: 17.2 kcal/mol
  ΔG, one-site model: -8.50 ± 0.07 kcal/mol
25°C, pH 7.5, peptides 13 injections, polypeptides 19 injections, listed as T2 EBNA2 348-422 m3 mt
  -TΔS, one-site model: 17.2 ± 0.79 kcal/mol

B5: EBNA2_348-422 SD + m3 mt: type 2 EBNA2 polypeptide 348–422 containing both the SD and motif 3 (ATAEA) mutations (protein)
chain: SMPQLSPVVSLHQGQGPENSPTPGPSTAGPVCRVTPSATPDISPIHEPESSDSEEPPFLFPDDWYPATAEAAELD
modifications: left off: His6, N-terminal, cleaved
notes: type 2 EBNA2 polypeptide 348–422 containing both the SD and motif 3 (ATAEA) mutations
[1]
  Kd: 5 ± 1 nM
[2]
  Kd: 94 ± 28 nM
  -TΔS, event 1, two-site model: 20.4 ± 2.24 kcal/mol
  -TΔS, event 2, two-site model: -1.95 ± 2.10 kcal/mol
  n value, event 1, two-site model: 0.20 ± 0.00
  n value, event 2, two-site model: 0.19 ± 0.01
  ΔG, event 1, two-site model: -9.60 ± 0.21 kcal/mol
  ΔG, event 2, two-site model: -11.3 ± 0.12 kcal/mol
  ΔH, event 1, two-site model: -31.7 ± 2.14 kcal/mol
  ΔH, event 2, two-site model: -7.65 ± 1.89 kcal/mol

B6: T2 EBNA2_348-422 m3 T1: T2 EBNA2_348-422 with motif 3 PTLEP replaced with the type 1 sequence PSIDP (protein)
chain: SMPQLSPVVSLHQGQGPENSPTPGPSTAGPVCRVTPSATPDISPIHEPESSDSEEPPFLFPSDWYPPSIDPAELD
modifications: left off: His6, N-terminal, cleaved
[3]
  -TΔS, one-site model: 19.5 ± 1.27 kcal/mol
  ΔG, one-site model: -7.80 ± 0.04 kcal/mol
  ΔH, one-site model: -27.3 ± 1.23 kcal/mol

B7: T2 EBNA2_348-412: type 2 EBNA2 polypeptide, amino acids 348–412, expressed and purified from E.coli (protein)
chain: SMPQLSPVVSLHQGQGPENSPTPGPSTAGPVCRVTPSATPDISPIHEPESSDSEEPPFLFPSDWY
modifications: left off: His6, N-terminal, cleaved
notes: type 2 EBNA2 polypeptide, amino acids 348–412, expressed and purified from E.coli
[3]
  -TΔS, one-site model: 14.4 kcal/mol
  ΔG, one-site model: -8.08 ± 0.06 kcal/mol
25°C, pH 7.5, peptides 13 injections, polypeptides 19 injections, listed as T2 EBNA2348-412
  -TΔS, one-site model: 14.4 ± 2.48 kcal/mol
